{"source": "the RNAGym collection of RNA variant scans (doi:10.1101/gr.219683.116)", "parents": {"B1": {"name": "mRNA-splicing (parent)", "chain": "AGUUGCUGCUGGGAGCUCCAGCACAGUGAAAUGGACAGAAGGGCAGAGCAA"}}}
{"variants_of": "B1", "experiment": "exon inclusion enrichment index; higher = more inclusion; WT1 exon 5 minigene, HEK293"}
{"variant": "G5C C6A U7C G8A U10A G34U", "exon inclusion enrichment index": 0.012}
{"variant": "G5C C6A U7C G8A U10A G34C", "exon inclusion enrichment index": 0.0202}
{"variant": "G5C C6A U7C G8A U10A G34A", "exon inclusion enrichment index": 0.0333}
{"variant": "G5C C6A U7C G8A U10A A47C G48U", "exon inclusion enrichment index": 0.0993}
{"variant": "G5C C6A U7C G8A U10A A47C G48C", "exon inclusion enrichment index": 0.224}
{"variant": "G5C C6A U7C G8A U10A A47C G48A", "exon inclusion enrichment index": 0.0538}
{"variant": "G5C C6A U7C G8A U10A A35U C36G", "exon inclusion enrichment index": 0.00777}
{"variant": "G5C C6A U7C G8A U10A A35U C36U", "exon inclusion enrichment index": 0.00092}
{"variant": "G5C C6A U7C G8A U10A A35U C36A", "exon inclusion enrichment index": 0.00105}
{"variant": "G5C C6A U7C G8A U10A G15C C16U", "exon inclusion enrichment index": 0.0687}
{"variant": "G5C C6A U7C G8A U10A G15C C16A", "exon inclusion enrichment index": 0.0594}
{"variant": "G5C C6A U7C G8A U10A G15C C16G", "exon inclusion enrichment index": 0.0998}
{"variant": "G5C C6A U7C G8A U10A G28U A29G", "exon inclusion enrichment index": 0.0731}
{"variant": "G5C C6A U7C G8A U10A G28U A29U", "exon inclusion enrichment index": 0.00263}
{"variant": "G5C C6A U7C G8A U10A G28U A29C", "exon inclusion enrichment index": 0.0517}
{"variant": "G5C C6A U7C G8A U10A A30G A31C", "exon inclusion enrichment index": 0.00678}
{"variant": "G5C C6A U7C G8A U10A A30G A31U", "exon inclusion enrichment index": 0.018}
{"variant": "G5C C6A U7C G8A U10A A30G A31G", "exon inclusion enrichment index": 0.0207}
{"variant": "G5C C6A U7C G8A U10A G33U G34C", "exon inclusion enrichment index": 0.00585}
{"variant": "G5C C6A U7C G8A U10A G33U G34A", "exon inclusion enrichment index": 0.0098}
{"variant": "G5C C6A U7C G8A U10A G33U G34U", "exon inclusion enrichment index": 0.00723}
{"variant": "G5C C6A U7C G8A U10A A39C A40C", "exon inclusion enrichment index": 0.334}
{"variant": "G5C C6A U7C G8A U10A A39C A40U", "exon inclusion enrichment index": 0.0879}
{"variant": "G5C C6A U7C G8A U10A A39C A40G", "exon inclusion enrichment index": 0.142}
{"variant": "G5C C6A U7C G8A U10A G38A A39C", "exon inclusion enrichment index": 0.107}
{"variant": "G5C C6A U7C G8A U10A G38A A39U", "exon inclusion enrichment index": 0.0079}
{"variant": "G5C C6A U7C G8A U10A G38A A39G", "exon inclusion enrichment index": 0.102}
{"variant": "G5C C6A U7C G8A U10A G12U G13U", "exon inclusion enrichment index": 0.00142}
{"variant": "G5C C6A U7C G8A U10A G12U G13C", "exon inclusion enrichment index": 0.0217}
{"variant": "G5C C6A U7C G8A U10A G12U G13A", "exon inclusion enrichment index": 0.0173}
{"variant": "G5C C6A U7C G8A U10A C36A A37G", "exon inclusion enrichment index": 0.0468}
{"variant": "G5C C6A U7C G8A U10A C36A A37C", "exon inclusion enrichment index": 0.146}
{"variant": "G5C C6A U7C G8A U10A C36A A37U", "exon inclusion enrichment index": 0.0382}
{"variant": "G5C C6A U7C G8A U10A G43U C44G", "exon inclusion enrichment index": 0.112}
{"variant": "G5C C6A U7C G8A U10A G43U C44U", "exon inclusion enrichment index": 0.0172}
{"variant": "G5C C6A U7C G8A U10A G43U C44A", "exon inclusion enrichment index": 0.00933}
{"variant": "G5C C6A U7C G8A U10A G13U A14G", "exon inclusion enrichment index": 0.0515}
{"variant": "G5C C6A U7C G8A U10A G13U A14C", "exon inclusion enrichment index": 0.0603}
{"variant": "G5C C6A U7C G8A U10A G13U A14U", "exon inclusion enrichment index": 0.0352}
{"variant": "G5C C6A U7C G8A U10A C16G U17C", "exon inclusion enrichment index": 0.0308}
{"variant": "G5C C6A U7C G8A U10A C16G U17G", "exon inclusion enrichment index": 0.00731}
{"variant": "G5C C6A U7C G8A U10A C16G U17A", "exon inclusion enrichment index": 0.181}
{"variant": "G5C C6A U7C G8A U10A C24A", "exon inclusion enrichment index": 0.105}
{"variant": "G5C C6A U7C G8A U10A C24U", "exon inclusion enrichment index": 0.0213}
{"variant": "G5C C6A U7C G8A U10A C24G", "exon inclusion enrichment index": 0.119}
{"variant": "G5C C6A U7C G8A U10A A30U A31C", "exon inclusion enrichment index": 0.143}
{"variant": "G5C C6A U7C G8A U10A A30U A31G", "exon inclusion enrichment index": 0.105}
{"variant": "G5C C6A U7C G8A U10A A30U A31U", "exon inclusion enrichment index": 0.0758}
{"variant": "G5C C6A U7C G8A U10A G28A", "exon inclusion enrichment index": 0.0118}
{"variant": "G5C C6A U7C G8A U10A G28C", "exon inclusion enrichment index": 0.0496}
{"variant": "G5C C6A U7C G8A U10A G28U", "exon inclusion enrichment index": 0.00934}
{"variant": "G5C C6A U7C G8A U10A A35C C36U", "exon inclusion enrichment index": 0.0111}
{"variant": "G5C C6A U7C G8A U10A A35C C36G", "exon inclusion enrichment index": 0.107}
{"variant": "G5C C6A U7C G8A U10A A35C C36A", "exon inclusion enrichment index": 0.0377}
{"variant": "G5C C6A U7C G8A U10A A47C", "exon inclusion enrichment index": 0.232}
{"variant": "G5C C6A U7C G8A U10A A47G", "exon inclusion enrichment index": 0.0221}
{"variant": "G5C C6A U7C G8A U10A A47U", "exon inclusion enrichment index": 0.108}
{"variant": "G5C C6A U7C G8A U10A A37G G38U", "exon inclusion enrichment index": 0.0217}
{"variant": "G5C C6A U7C G8A U10A A37G G38A", "exon inclusion enrichment index": 0.104}
{"variant": "G5C C6A U7C G8A U10A A37G G38C", "exon inclusion enrichment index": 0.228}
{"variant": "G5C C6A U7C G8A U10A A40U G41C", "exon inclusion enrichment index": 0.451}
{"variant": "G5C C6A U7C G8A U10A A40U G41A", "exon inclusion enrichment index": 0.00421}
{"variant": "G5C C6A U7C G8A U10A A40U G41U", "exon inclusion enrichment index": 0.0362}
{"variant": "G5C C6A U7C G8A U10A A30G", "exon inclusion enrichment index": 0.0971}
{"variant": "G5C C6A U7C G8A U10A A30U", "exon inclusion enrichment index": 0.0402}
{"variant": "G5C C6A U7C G8A U10A G15C", "exon inclusion enrichment index": 0.0588}
{"variant": "G5C C6A U7C G8A U10A G15A", "exon inclusion enrichment index": 0.0449}
{"variant": "G5C C6A U7C G8A U10A G15U", "exon inclusion enrichment index": 0.098}
{"variant": "G5C C6A U7C G8A U10A A40G", "exon inclusion enrichment index": 0.0695}
{"variant": "G5C C6A U7C G8A U10A A40U", "exon inclusion enrichment index": 0.0713}
{"variant": "G5C C6A U7C G8A U10A A40C", "exon inclusion enrichment index": 0.355}
{"variant": "G5C C6A U7C G8A U10A G12A", "exon inclusion enrichment index": 0.208}
{"variant": "G5C C6A U7C G8A U10A G12C", "exon inclusion enrichment index": 0.365}
{"variant": "G5C C6A U7C G8A U10A G12U", "exon inclusion enrichment index": 0.0134}
{"variant": "G5C C6A U7C G8A U10A G34A A35G", "exon inclusion enrichment index": 0.0257}
{"variant": "G5C C6A U7C G8A U10A G34A A35U", "exon inclusion enrichment index": 0.0204}
{"variant": "G5C C6A U7C G8A U10A G34A A35C", "exon inclusion enrichment index": 0.0814}
{"variant": "G5C C6A U7C G8A U10A G11A", "exon inclusion enrichment index": 0.832}
{"variant": "G5C C6A U7C G8A U10A G11C", "exon inclusion enrichment index": 0.99}
{"variant": "G5C C6A U7C G8A U10A G11U", "exon inclusion enrichment index": 0.955}
{"variant": "G5C C6A U7C G8A U10A C24U A25U", "exon inclusion enrichment index": 0.151}
{"variant": "G5C C6A U7C G8A U10A C24U A25C", "exon inclusion enrichment index": 0.98}
{"variant": "G5C C6A U7C G8A U10A C24U A25G", "exon inclusion enrichment index": 0.334}
